What all share (assay): SPR, kinetics, Fab over captured mutant
The target of one test is T1, shCD131 V108A (human, UniProt P32927 17-438).
T1 construct: C-terminal 6xHis
T1 sequence: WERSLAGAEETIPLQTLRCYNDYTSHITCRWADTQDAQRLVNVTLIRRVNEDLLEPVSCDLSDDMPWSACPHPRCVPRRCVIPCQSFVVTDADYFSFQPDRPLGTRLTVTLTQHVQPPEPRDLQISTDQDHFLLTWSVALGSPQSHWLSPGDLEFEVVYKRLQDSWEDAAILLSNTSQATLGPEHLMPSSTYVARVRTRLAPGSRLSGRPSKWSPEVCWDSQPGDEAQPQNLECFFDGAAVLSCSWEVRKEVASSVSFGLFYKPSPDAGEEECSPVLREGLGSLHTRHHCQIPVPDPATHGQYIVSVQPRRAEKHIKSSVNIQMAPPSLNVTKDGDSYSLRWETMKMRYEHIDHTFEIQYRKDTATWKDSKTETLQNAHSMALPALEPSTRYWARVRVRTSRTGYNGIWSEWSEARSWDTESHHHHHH

A further test addresses T2, shCD131 N337A (human, UniProt P32927 17-438).
T2 construct: C-terminal 6xHis
T2 sequence: T1 sequence with A92V, N321A

The target in the next test is T3, shCD131 Q339A (human, UniProt P32927 17-438).
T3 construct: C-terminal 6xHis
T3 sequence: T1 sequence with A92V, Q323A

The target in a further test is T4, shCD131 N422A (human, UniProt P32927 17-438).
T4 construct: C-terminal 6xHis
T4 sequence: T1 sequence with A92V, N406A

Changes are numbered by the printed parent chain.

B1: 9A2 Fab (Fab, V domains shown)
VH: EVQLLESGGGLVQPGGSLRLSCAASGFTFSHYHMLWVRQAPGKGLEWVSSIRSSGGFTYYADSVKGRFTISRDNSKNTLYLQMNSLRAEDTAVYYCARFYDSFFDIWGQGTMVTVSS
VL: DIQMTQSPSSVSASVGDRVTITCRASQGISSWLAWYQQKPGKAPKLLIYAASSLQSGVPSRFSGSGSGTDFTLTISSLQPEDFATYYCQQANSFPITFGQGTRLEIKR
notes: also called recombinant Fab of 9A2
Consider B1, for which the Kd was 83 nM in the test with shCD131 V108A, 91 nM in the test with shCD131 N337A, 144 nM in the test with shCD131 Q339A and 54 nM in the test with shCD131 N422A.

The record behind these values is US20190062438A1 (CSL, published 2019).
